Source: US9175045B2, “Peptidomimetic macrocycles” (Aileron Therapeutics, Inc., priority 2008, dated 2015)
Numbered stars: 1 amine (or outer) side, 2 acyl side, 3 side chain; on linkers, the order of the positions; unused ones are H or OH. Bridge positions count the residues as written; N and C are the ends. Square brackets hold non-standard residues; d marks the D form. Peptide text beside a SMILES is read from it. * marks the point of attachment. ξ: configuration not given here. ξαMeNle(6-ylidene) = CC(CCCC=[*:3])(N[*:1])C(=O)[*:2]; S5 = C=CCCC[C@](C)(N)C(=O)O; Nle = CCCC[C@H](N)C(=O)O; Aib = CC(C)(N)C(=O)O; Propionyl = CCC(=O)*

What was measured:
Jurkat cell line = format: cell-based; details: for EC50: 24 h
Experimental: Jurkat cell line (Clone E6-1, ATCC catalog #TIB-152) is grown in specific serum-supplemented media (RPMI-1640, Invitrogen catalog #22400) as recommended by ATCC. A day prior to the initiation of the study, cells are split at optimal cell density (2×10^5-5×10^5 cells/ml) to assure actively dividing cells. The next day, cells are washed twice in serum-free Opti-MEM media (Invitrogen, Catalog #51985) and cells are then plated at optimal cell density (10,000 cells/well) in 50 μl Opti-MEM media or Opti-MEM supplemented with 2% or 10% human serum (Bioreclamation, catalog #HMSRM) in 96-well white tissue culture plate (Nunc, catalog #136102).
For serum free experiment, crosslinked polypeptides are diluted from 2 mM stocks (100% DMSO) in sterile water to prepare 400 μM working solutions. The crosslinked polypeptides and controls are diluted 10-fold first and then serially two-fold diluted in Opti-MEM in dosing plates to provide concentrations of between 1.2 and 40 μM. 50 μl of each dilution is then added to the appropriate wells of the test plate to achieve final concentrations of the polypeptides equal to between 0.6 to 20 μM. For studies using Opti-MEM supplemented with human serum (Bioreclamation, catalog #HMSRM), crosslinked polypeptides are diluted from 10 mM stocks (100% DMSO) in sterile water to prepare 2 mM working solutions. The crosslinked polypeptides and controls are diluted 10-fold first and then serially two-fold diluted in Opti-MEM in the presence of 2% or 10% of human serum to provide concentrations of the polypeptides equal to between 6.25 to 200 μM in dosing plates. 50 μl of each dilution is then added to the appropriate wells of the test plate to achieve final concentrations of the polypeptides equal to between 3.125 to 100 μM. Controls included wells without polypeptides containing the same concentration of DMSO as the wells containing the macrocycles, wells containing 0.1% Triton X-100 and wells containing no cells. Plates are incubated for 24 hours at 37° C. in humidified 5% CO2 atmosphere.
At the end of the incubation period, CellTiter-Glo assay is performed according to manufacturer's instructions (Promega, catalog #G7573) and luminescence is measured using Synergy HT Plate reader (BioTek). Luminescence correlates with viability. A reduction in viability reflects the ability of the test compounds to induce programmed cell death via BAX and BAK.

human serum proteins = test: Apparent affinity to human serum proteins (Kd*) by EC50 shift analysis; format: in vitro ADME; details: nonlinear regression of EC50 shift with serum, n = 1, P = 700 μM for 100% serum
Text: The measurement of apparent Kd values for serum protein by EC50 shift analysis provides a simple and rapid means of quantifying the propensity of experimental compounds to bind HSA and other serum proteins. A linear relationship exists between the apparent EC50 in the presence of serum protein (EC′50) and the amount of serum protein added to an in vitro assay. This relationship is defined by the binding affinity of the compound for serum proteins, expressed as Kd*. This term is an experimentally determined, apparent dissociation constant that may result from the cumulative effects of multiple, experimentally indistinguishable, binding events. The form of this relationship is presented here in Eq. 0.3, and its derivation can be found in Copeland et al, Biorg. Med. Chem. Lett. 2004, 14:2309-2312. [formula] A significant proportion of serum protein binding can be ascribed to drug interactions with HSA, due to the very high concentration of this protein in serum (35-50 g/L or 530-758 μM). To calculate the Kd value for these compounds we have assumed that the shift in EC50 upon protein addition can be ascribed fully to the HSA present in the added serum, where P is 700 μM for 100% serum, P is 70 μM for 10% serum, etc. We further made the simplifying assumption that all of the compounds bind HSA with a 1:1 stoichiometry, so that the term n in Eq. (0.3) is fixed at unity. With these parameters in place we calculated the Kd* value for each stapled peptide from the changes in EC50 values with increasing serum (and serum protein) concentrations by nonlinear regression analysis of Eq. 0.3 using Mathematica 4.1 (Wolfram Research, Inc., www.wolfram.com). EC′50 values in whole blood are estimated by setting P in Eq. 0.3 to 700 μM [HSA].

[1] = Estimated free fraction in blood, calculated from Kd* with [HSA]total 700 μM; format: in vitro ADME; details: human; [HSA]total set at 700 μM; read-out: Free Fraction est. in blood
Experimental: The free fraction in blood is estimated per the following equation, as derived by Trainor, Expert Opin. Drug Disc., 2007, 2(1):51-64, where [HSA]total is set at 700 μM. [formula]

[2] = target: T1, human serum proteins (binding ascribed fully to human serum albumin, HSA) (human, UniProt P02768 25-609); test: cell-based or functional assay
T1 sequence (P02768 25-609 limits assumed): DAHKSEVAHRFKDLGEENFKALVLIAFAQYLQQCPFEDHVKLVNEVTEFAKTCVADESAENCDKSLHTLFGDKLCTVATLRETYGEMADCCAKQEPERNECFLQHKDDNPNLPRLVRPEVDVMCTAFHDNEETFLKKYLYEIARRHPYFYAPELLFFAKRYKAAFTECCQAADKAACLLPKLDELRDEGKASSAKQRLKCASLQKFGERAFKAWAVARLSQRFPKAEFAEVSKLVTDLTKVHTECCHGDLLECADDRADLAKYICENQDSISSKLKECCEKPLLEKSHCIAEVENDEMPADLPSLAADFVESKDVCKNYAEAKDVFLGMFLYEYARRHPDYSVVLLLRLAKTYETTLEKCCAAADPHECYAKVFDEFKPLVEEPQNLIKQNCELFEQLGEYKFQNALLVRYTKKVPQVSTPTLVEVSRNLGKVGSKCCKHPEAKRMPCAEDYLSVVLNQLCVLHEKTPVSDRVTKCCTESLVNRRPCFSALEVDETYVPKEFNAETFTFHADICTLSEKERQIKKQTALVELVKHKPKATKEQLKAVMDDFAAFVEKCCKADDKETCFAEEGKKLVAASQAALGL

[3] = target: T1, human serum proteins (binding ascribed …); test: apparent Kd* by EC50 shift analysis: Jurkat viability EC50 at 0, 2 and 10% human serum, fit assuming 1:1 binding to HSA

Row | Molecule | EC50 (Jurkat cell line) | efficacy in serum-free media and in the presence of serum (Jurkat cell line; statement in words) | Kd (human serum proteins) | fraction unbound [1] | 2% serum EC50 (Jurkat cell viability, CellTiter-Glo) [2] | 10% serum EC50 (Jurkat cell viability, CellTiter-Glo) [2] | Kd [3]
1 | CCCC[C@H](NC(=O)C1(C)CCCC=CCCCC(C)(NC(=O)[C@H](C)NC(=O)[C@H](CC(C)C)NC(=O)[C@H](Cc2c[nH]cn2)NC(=O)[C@H](CCCNC(=N)N)NC(=O)[C@H](C)NC(=O)[C@@H](NC(=O)[C@H](CC(N)=O)NC(=O)[C@H](CCCNC(=N)N)NC(=O)[C@@H](NC(=O)[C@@H](NC(=O)[C@H](CC(=O)O)NC(C)=O)[C@@H](C)CC)[C@@H](C)CC)[C@@H](C)CC)C(=O)N[C@@H](C(C)C)C(=O)NCC(=O)N[C@@H](CC(=O)O)C(=O)N1)C(=O)N[C@@H](CC(=O)O)C(=O)N[C@@H](CCCNC(=N)N)C(=O)N[C@@H](CO)C(=O)N[C@H](C(N)=O)[C@@H](C)CC (stereo partly shown) [Compound 1, Ac-DIIRNIARHLA$VGD$NleDRSI-NH2] (Ac-DIIRNIARHLA[ξαMeNle(6-ylidene)]VGD[ξαMeNle(6-ylidene)][Nle]DRSI-NH2; staple 12-16) | 1.2 µM | high efficacy in serum-free media, which is substantially reduced in the presence of serum | < 0.1 µM | < 0.001 |  |  | 
2 | CCCC[C@H](NC(=O)C1(C)CCCC=CCCCC(C)(NC(=O)[C@H](C)NC(=O)[C@H](CC(C)C)NC(=O)[C@H](Cc2c[nH]cn2)NC(=O)[C@H](CCCNC(=N)N)NC(=O)[C@H](C)NC(=O)[C@@H](NC(=O)[C@H](CC(N)=O)NC(=O)[C@H](CCCNC(=N)N)NC(=O)[C@H](C)NC(=O)[C@H](C)NC(=O)[C@H](CC(=O)O)NC(C)=O)[C@@H](C)CC)C(=O)N[C@@H](C(C)C)C(=O)NC(C)(C)C(=O)N[C@@H](CC(=O)O)C(=O)N1)C(=O)N[C@@H](C)C(=O)N[C@@H](CCCNC(=N)N)C(=O)N[C@@H](CO)C(=O)N[C@H](C(N)=O)[C@@H](C)CC (stereo partly shown) [Compound 2, Ac-DAARNIARHLA$VAibD$NleARSI-NH2] (Ac-DAARNIARHLA[ξαMeNle(6-ylidene)]V[Aib]D[ξαMeNle(6-ylidene)][Nle]ARSI-NH2; staple 12-16) | 1.6 µM |  | < 0.1 µM | < 0.001 |  |  | 
3 | CCCC[C@H](NC(=O)C1(C)CCCC=CCCCC(C)(NC(=O)[C@H](C)NC(=O)[C@H](CC(C)C)NC(=O)[C@H](Cc2c[nH]cn2)NC(=O)[C@H](CCCNC(=N)N)NC(=O)[C@H](C)NC(=O)[C@@H](NC(=O)[C@H](CC(N)=O)NC(=O)[C@H](CCCNC(=N)N)NC(=O)[C@H](C)NC(=O)[C@@H](NC(=O)[C@H](CC(=O)O)NC(C)=O)[C@@H](C)CC)[C@@H](C)CC)C(=O)N[C@@H](C(C)C)C(=O)NC(C)(C)C(=O)N[C@@H](CC(=O)O)C(=O)N1)C(=O)N[C@@H](C)C(=O)N[C@@H](CCCNC(=N)N)C(=O)N[C@@H](CO)C(=O)N[C@H](C(N)=O)[C@@H](C)CC (stereo partly shown) [Compound 3, Ac-DIARNIARHLA$VAibD$NleARSI-NH2] (Ac-DIARNIARHLA[ξαMeNle(6-ylidene)]V[Aib]D[ξαMeNle(6-ylidene)][Nle]ARSI-NH2; staple 12-16) | 1.2 µM |  | < 0.1 µM | < 0.001 |  |  | 
4 | IWIAQALRXIGDXFNAYYARR (N-terminal acetyl (Ac); C-terminal amide (NH2); $ at 9 and 13 (alpha-methyl amino acids joined by an all-carbon eight-carbon crosslinker with a double bond)) [Compound 12 (crosslinked polypeptide derived from human BIM BH3)] |  |  |  |  | 8.6 µM | 26.5 µM | 2.3 µM
5 | Ac-IWIAQALR[S5]IGN[S5]FNAYYARR-NH2 (staple 9-13) [Compound 16 (crosslinked polypeptide derived from human BIM BH3)] |  |  |  |  | 2.3 µM | 9.3 µM | 3.5 µM
6 | Ac-IWIAQQLR[S5]IGD[S5]FNAYYARR-NH2 (staple 9-13) [Compound 11 (crosslinked polypeptide derived from human BIM BH3)] |  |  |  |  | 7.9 µM | 37.6 µM | 1.1 µM
7 | Ac-RWIAQALR[S5]IGN[S5]FNAYYARR-NH2 (staple 9-13) [Compound 15 (crosslinked polypeptide derived from human BIM BH3)] |  |  |  |  | 2.6 µM | 11.5 µM | 5.1 µM
8 | Ac-RWIAQQLR[S5]IGD[S5]FNAYYARR-NH2 (staple 9-13) [Compound 13 (crosslinked polypeptide derived from human BIM BH3)] |  |  |  |  | 5.4 µM | 21.5 µM | 3.8 µM
9 | Ac-RWIAQALR[S5]IGD[S5]FNAFYARR-NH2 (staple 9-13) [Compound 14 (crosslinked polypeptide derived from human BIM BH3)] |  |  |  |  | 2.8 µM | 10.8 µM | 2.3 µM
10 | Ac-DAARNIARHLA[S5]V[Aib]D[S5][Nle]ARSI-NH2 (staple 12-16) [Compound 2 (crosslinked polypeptide derived from human BID BH3)] |  |  |  |  | 20.5 µM | 97.1 µM | < 0.1 µM
11 | Ac-DIARNIARHLA[S5]V[Aib]D[S5][Nle]ARSI-NH2 (staple 12-16) [Compound 3 (crosslinked polypeptide derived from human BID BH3)] |  |  |  |  | 14.9 µM | 88.9 µM | < 0.1 µM
12 | Ac-DAIRNIARHLA[S5]V[Aib]D[S5][Nle]ARSI-NH2 (staple 12-16) [Compound 4 (crosslinked polypeptide derived from human BID BH3)] |  |  |  |  | 11.3 µM | 73.1 µM | < 0.1 µM
13 | Propionyl-RNI[Aib]RHL[Aib][S5]V[Aib]D[S5]AARSI-NH2 (staple 9-13) [Compound 9 (crosslinked polypeptide derived from human BID BH3)] |  |  |  |  | 5.6 µM | 20.2 µM | 2.9 µM
14 | Ac-ALRRRI[S5]LCA[S5]HHST-NH2 (staple 7-11, also called hMAML) [Compound 19 (crosslinked polypeptide derived from human MAML peptide sequence)] |  |  |  |  | 14.7 µM | 57.5 µM | 0.6 µM
15 | Ac-ERLRRRI[S5]LCR[S5]HHST-NH2 (staple 8-12, also called hMAML) [Compound 17 (crosslinked polypeptide derived from human MAML peptide sequence)] |  |  |  |  | 55.1 µM | > 100 µM | < 0.1 µM
16 | Ac-ERLRRRI[S5]LAR[S5]HHST-NH2 (staple 8-12, also called hMAML) [Compound 18 (crosslinked polypeptide derived from human MAML peptide sequence)] |  |  |  |  | > 100 µM | > 100 µM | < 0.1 µM
